Experimental data taken from article PMC5490261, “The structural and functional characterization of human RecQ4 reveals insights into its helicase mechanism”.

Columns and labels:
Conditions in all cases: protein: recombinant; tags: Trx-His6 removed by 3C protease; label: 5' Cy3
RecQ4 427-1208 WT = target: T1, RecQ4 427-1208 WT (Homo sapiens, UniProt O94761 427-1208); assay: fluorescence polarization; apparent Kd; 20 mM HEPES pH 8.0, 10 mM NaCl, 5% glycerol, 1 mM MgCl2, 0.5 mM TCEP, 0.5 nM Cy3-ssDNA; temperature not stated
T1 sequence: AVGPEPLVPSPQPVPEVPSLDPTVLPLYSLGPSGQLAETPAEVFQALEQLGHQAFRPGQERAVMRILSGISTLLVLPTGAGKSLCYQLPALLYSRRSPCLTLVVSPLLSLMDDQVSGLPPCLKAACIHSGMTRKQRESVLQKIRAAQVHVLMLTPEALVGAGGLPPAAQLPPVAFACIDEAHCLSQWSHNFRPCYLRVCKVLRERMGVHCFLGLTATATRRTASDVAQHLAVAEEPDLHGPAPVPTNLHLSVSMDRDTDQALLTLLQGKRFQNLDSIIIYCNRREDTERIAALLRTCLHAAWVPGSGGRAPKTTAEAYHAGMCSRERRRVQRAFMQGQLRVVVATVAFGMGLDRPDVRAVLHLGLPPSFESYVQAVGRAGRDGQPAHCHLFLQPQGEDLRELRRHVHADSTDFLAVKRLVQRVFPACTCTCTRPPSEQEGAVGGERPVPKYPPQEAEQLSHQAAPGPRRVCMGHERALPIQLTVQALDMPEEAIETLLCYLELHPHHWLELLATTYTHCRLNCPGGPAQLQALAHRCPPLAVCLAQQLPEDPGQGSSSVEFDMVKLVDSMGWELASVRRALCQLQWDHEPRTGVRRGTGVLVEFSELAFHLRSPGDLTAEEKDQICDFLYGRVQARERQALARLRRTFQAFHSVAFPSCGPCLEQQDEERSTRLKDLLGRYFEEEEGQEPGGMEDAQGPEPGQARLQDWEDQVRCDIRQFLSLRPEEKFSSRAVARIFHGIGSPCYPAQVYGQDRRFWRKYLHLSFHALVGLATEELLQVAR

RecQ4 427-1208 R618L = target: T2, RecQ4 427-1208 R618L (Homo sapiens, UniProt O94761 427-1208, R618L); assay: fluorescence polarization; WT-like affinity; figure values not assignable from text layer; 20 mM HEPES pH 8.0, 10 mM NaCl, 5% glycerol, 1 mM MgCl2, 0.5 mM TCEP, 0.5 nM Cy3-ssDNA; temperature not stated
T2 sequence: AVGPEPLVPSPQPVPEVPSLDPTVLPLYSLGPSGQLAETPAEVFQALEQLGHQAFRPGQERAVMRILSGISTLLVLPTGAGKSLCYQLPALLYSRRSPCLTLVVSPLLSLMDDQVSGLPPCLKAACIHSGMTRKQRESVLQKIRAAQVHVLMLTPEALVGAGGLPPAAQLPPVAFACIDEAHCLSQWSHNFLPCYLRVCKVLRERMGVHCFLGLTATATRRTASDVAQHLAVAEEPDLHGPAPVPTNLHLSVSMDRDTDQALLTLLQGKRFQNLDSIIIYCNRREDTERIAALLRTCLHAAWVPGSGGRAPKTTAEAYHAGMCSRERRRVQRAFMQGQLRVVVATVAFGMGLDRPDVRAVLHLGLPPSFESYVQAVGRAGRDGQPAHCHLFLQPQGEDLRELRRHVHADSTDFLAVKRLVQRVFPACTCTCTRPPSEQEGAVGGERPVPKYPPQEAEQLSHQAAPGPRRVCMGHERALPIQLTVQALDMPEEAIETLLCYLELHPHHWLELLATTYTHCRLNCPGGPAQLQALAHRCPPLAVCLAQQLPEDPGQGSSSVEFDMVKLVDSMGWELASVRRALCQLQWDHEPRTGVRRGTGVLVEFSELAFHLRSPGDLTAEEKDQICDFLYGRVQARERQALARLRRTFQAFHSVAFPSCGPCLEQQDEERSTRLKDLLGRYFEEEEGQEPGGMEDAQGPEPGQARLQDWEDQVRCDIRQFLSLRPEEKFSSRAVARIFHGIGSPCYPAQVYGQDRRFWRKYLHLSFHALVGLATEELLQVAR

RecQ4 427-1208 F617L = target: T3, RecQ4 427-1208 F617L (Homo sapiens, UniProt O94761 427-1208, F617L); assay: as above
T3 sequence: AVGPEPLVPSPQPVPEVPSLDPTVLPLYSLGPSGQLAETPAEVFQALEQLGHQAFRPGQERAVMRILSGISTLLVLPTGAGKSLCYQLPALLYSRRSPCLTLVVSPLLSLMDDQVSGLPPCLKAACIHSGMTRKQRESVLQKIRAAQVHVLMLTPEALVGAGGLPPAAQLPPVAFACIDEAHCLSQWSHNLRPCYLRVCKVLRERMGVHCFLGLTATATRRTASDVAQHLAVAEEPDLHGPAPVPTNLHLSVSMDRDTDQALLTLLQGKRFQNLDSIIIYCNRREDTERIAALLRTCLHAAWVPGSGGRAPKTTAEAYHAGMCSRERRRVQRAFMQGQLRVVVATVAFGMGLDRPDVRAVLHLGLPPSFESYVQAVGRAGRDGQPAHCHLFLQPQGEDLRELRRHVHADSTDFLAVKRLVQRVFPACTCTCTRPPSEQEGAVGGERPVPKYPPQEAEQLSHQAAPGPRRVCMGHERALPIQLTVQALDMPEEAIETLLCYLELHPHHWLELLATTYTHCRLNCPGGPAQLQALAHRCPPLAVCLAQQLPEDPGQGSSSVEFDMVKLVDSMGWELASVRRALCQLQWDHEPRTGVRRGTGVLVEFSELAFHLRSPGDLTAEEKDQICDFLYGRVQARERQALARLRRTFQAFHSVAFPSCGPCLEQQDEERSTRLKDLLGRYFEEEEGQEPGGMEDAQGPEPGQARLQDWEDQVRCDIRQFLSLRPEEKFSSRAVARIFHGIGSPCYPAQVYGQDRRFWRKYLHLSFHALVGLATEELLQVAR

CCATTCCACCCTCTATTTTTTTTTTTTTTT (ssDNA) [T3-Cy3] was tested, and the Kd (RecQ4 427-1208 WT) was 4.6 ± 0.4 nM, the binding result (RecQ4 427-1208 R618L) was “binds” and the binding result (RecQ4 427-1208 F617L) was “binds”.
